According to KR20220013297A (dated 2022):

How the values were obtained:
[1] = molecular target: T1, SARS-CoV-2 바이러스 표면 단백질 (RBD), WT (SARS-CoV-2, UniProt P0DTC2 319-541); test: BLI (Octet), Full IgG culture supernatant on SARS-CoV-2 RBD
[2] = molecular target: T1, SARS-CoV-2 바이러스 표면 단백질 (RBD), WT; test: BLI (Octet), Full IgG on RBD WT

B1: No. 32 항체 (Full IgG) (antibody, V domains shown)
VH: EVQLVQSGGGLIQPGGSLRLSCAASEFIVSSNYMTWVRQAPGKGLEWVSIIYPGGSTYYADSVKGRFTISRDNSKNTLYLRMNSLRAEDTAVYYCARDLPLTGTTLDYWGQGTLVTVSS
VL: not shown
With B1 the Kd [1] was 0.147 nM, the Kd [2] was 0.305 nM and the koff [2] was 0.000193 s⁻¹. For the same binder, the kon [2] was 633000 M⁻¹ s⁻¹.
